Assay results from US11325966.

Assays:
Assay in all cases: cell-based or functional assay
[1] = target: HIV-1 envelope (Env) of pseudovirus BJOX015000.11.5 (HIV-1)
[2] = target: HIV-1 envelope (Env) of pseudovirus BJOX028000.10.3 (HIV-1)
[3] = target: HIV-1 envelope (Env) of pseudovirus HIV-0013095-2.11 (HIV-1)
[4] = target: HIV-1 envelope (Env) of pseudovirus SC422661.8 (HIV-1)
[5] = target: HIV-1 envelope (Env) of pseudovirus X1632_S2_B10 (HIV-1)
[6] = target: HIV-1 envelope (Env) of pseudovirus X2131_C1_B5 (HIV-1)
[7] = target: HIV-1 Env of pseudovirus 7030102001E5 (Rev-) (HIV-1)
[8] = target: HIV-1 Env of pseudovirus 1056_10_TA11_1826 (HIV-1)
[9] = target: HIV-1 Env of pseudovirus 211-9 (HIV-1)
[10] = target: HIV-1 Env of pseudovirus 231966.c02 (HIV-1)
[11] = target: HIV-1 Env of pseudovirus 246F C1G (HIV-1)
[12] = target: HIV-1 Env of pseudovirus 3817.v2.c59 (HIV-1)
[13] = target: HIV-1 Env of pseudovirus 6041.v3.c23 (HIV-1)
[14] = target: HIV-1 Env of pseudovirus 620345.c01 (HIV-1)
[15] = target: HIV-1 Env of pseudovirus 6535.3 (HIV-1)
[16] = target: HIV-1 Env of pseudovirus 6540.v4.c1 (HIV-1)
[17] = target: HIV-1 Env of pseudovirus 7030102001E5(Rev-) (HIV-1)
[18] = target: HIV-1 Env of pseudovirus 9004SS_A3_4 (HIV-1)
[19] = target: HIV-1 Env of pseudovirus A07412M1.vrc12 (HIV-1)
[20] = target: HIV-1 Env of pseudovirus BJOX009000.02.4 (HIV-1)
[21] = target: HIV-1 Env of pseudovirus BJOX010000.06.2 (HIV-1)
[22] = target: HIV-1 Env of pseudovirus CAAN5342.A2 (HIV-1)
[23] = target: HIV-1 Env of pseudovirus CNE20 (HIV-1)
[24] = target: HIV-1 Env of pseudovirus CNE21 (HIV-1)
[25] = target: HIV-1 Env of pseudovirus CNE5 (HIV-1)
[26] = target: HIV-1 Env of pseudovirus CNE53 (HIV-1)
[27] = target: HIV-1 Env of pseudovirus CNE58 (HIV-1)
[28] = target: HIV-1 Env of pseudovirus Ce2010_F5 (HIV-1)
[29] = target: HIV-1 Env of pseudovirus Ce703010054_2A2 (HIV-1)
[30] = target: HIV-1 Env of pseudovirus Ce704809221_1B3 (HIV-1)
[31] = target: HIV-1 Env of pseudovirus HIV-16055-2.3 (HIV-1)
[32] = target: HIV-1 Env of pseudovirus HIV-16845-2.22 (HIV-1)
[33] = target: HIV-1 Env of pseudovirus PVO.4 (HIV-1)
[34] = target: HIV-1 Env of pseudovirus Q259.d2.17 (HIV-1)
[35] = target: HIV-1 Env of pseudovirus R3265.c06 (HIV-1)
[36] = target: HIV-1 Env of pseudovirus T250-4 (HIV-1)
[37] = target: HIV-1 Env of pseudovirus TRO.11 (HIV-1)
[38] = target: HIV-1 Env of pseudovirus ZM135M.PE10a (HIV-1)
[39] = target: HIV-1 Env of pseudovirus ZM233M.PB6 (HIV-1)

BG1 (antibody)
IC50 in TZM-bl assay [1]: > 30 µg/mL
IC80 in TZM-bl assay [1]: > 30 µg/mL
IC50 in TZM-bl assay [2]: > 30 µg/mL
IC80 in TZM-bl assay [2]: > 30 µg/mL
IC50 in TZM-bl assay [3]: > 30 µg/mL
IC80 in TZM-bl assay [3]: > 30 µg/mL
IC50 in TZM-bl assay [4]: > 30 µg/mL
IC80 in TZM-bl assay [4]: > 30 µg/mL
IC50 in TZM-bl assay [5]: 0.079 µg/mL
IC80 in TZM-bl assay [5]: 0.25 µg/mL
IC50 in TZM-bl assay [6]: 0.116 µg/mL
IC80 in TZM-bl assay [6]: 0.313 µg/mL

BG18 IgG (354BG18) (antibody)
IC50 in TZM-bl assay [7]: 0.002 µg/mL
IC80 in TZM-bl assay [7]: 0.008 µg/mL

B1: 10-1074 (antibody, V domains shown)
VH: QVQLQESGPGLVKPSETLSVTCSVSGDSMNNYYWTWIRQSPGKGLEWIGYISDRESATYNPSLNSRVVISRDTSKNQLSLKLNSVTPADTAVYYCATARRGQRIYGVVSFGEFFYYYSMDVWGKGTTVTVSS
VL: SYVRPLSVALGETARISCGRQALGSRAVQWYQHRPGQAPILLIYNNQDRPSGIPERFSGTPDINFGTRATLTISGVEAGDEADYYCHMWDSRSGFSWSFGGATRLTVL
IC50 in TZM-bl assay [8]: 0.038 µg/mL
IC80 in TZM-bl assay [8]: 0.168 µg/mL
IC50 in TZM-bl assay [9]: 0.065 µg/mL
IC80 in TZM-bl assay [9]: 0.403 µg/mL
IC50 in TZM-bl assay [10]: > 10 µg/mL
IC80 in TZM-bl assay [10]: > 10 µg/mL
IC50 in TZM-bl assay [11]: 0.035 µg/mL
IC80 in TZM-bl assay [11]: 0.119 µg/mL
IC50 in TZM-bl assay [12]: 0.706 µg/mL
IC80 in TZM-bl assay [12]: 4.49 µg/mL
IC50 in TZM-bl assay [13]: > 10 µg/mL
IC80 in TZM-bl assay [13]: > 10 µg/mL
IC50 in TZM-bl assay [14]: > 10 µg/mL
IC80 in TZM-bl assay [14]: > 10 µg/mL
IC50 in TZM-bl assay [15]: 0.007 µg/mL
IC80 in TZM-bl assay [15]: 0.022 µg/mL
IC50 in TZM-bl assay [16]: > 10 µg/mL
IC80 in TZM-bl assay [16]: > 10 µg/mL
IC50 in TZM-bl assay [17]: 0.009 µg/mL
IC80 in TZM-bl assay [17]: 0.019 µg/mL
IC50 in TZM-bl assay [18]: 0.012 µg/mL
IC80 in TZM-bl assay [18]: 0.032 µg/mL
IC50 in TZM-bl assay [19]: 0.011 µg/mL
IC80 in TZM-bl assay [19]: 0.037 µg/mL
IC50 in TZM-bl assay [20]: > 10 µg/mL
IC80 in TZM-bl assay [20]: > 10 µg/mL
IC50 in TZM-bl assay [21]: > 10 µg/mL
IC80 in TZM-bl assay [21]: > 10 µg/mL
IC50 in TZM-bl assay [22]: 0.005 µg/mL
IC80 in TZM-bl assay [22]: 0.019 µg/mL
IC50 in TZM-bl assay [23]: 0.002 µg/mL
IC80 in TZM-bl assay [23]: 0.005 µg/mL
IC50 in TZM-bl assay [24]: 0.047 µg/mL
IC80 in TZM-bl assay [24]: 0.124 µg/mL
IC50 in TZM-bl assay [25]: > 10 µg/mL
IC80 in TZM-bl assay [25]: > 10 µg/mL
IC50 in TZM-bl assay [26]: 0.013 µg/mL
IC80 in TZM-bl assay [26]: 0.058 µg/mL
IC50 in TZM-bl assay [27]: 0.165 µg/mL
IC80 in TZM-bl assay [27]: 0.476 µg/mL
IC50 in TZM-bl assay [28]: > 10 µg/mL
IC80 in TZM-bl assay [28]: > 10 µg/mL
IC50 in TZM-bl assay [29]: > 10 µg/mL
IC80 in TZM-bl assay [29]: > 10 µg/mL
IC50 in TZM-bl assay [30]: 0.084 µg/mL
IC80 in TZM-bl assay [30]: 0.395 µg/mL
IC50 in TZM-bl assay [31]: > 10 µg/mL
IC80 in TZM-bl assay [31]: > 10 µg/mL
IC50 in TZM-bl assay [32]: 0.727 µg/mL
IC80 in TZM-bl assay [32]: 3.93 µg/mL
IC50 in TZM-bl assay [33]: 0.072 µg/mL
IC80 in TZM-bl assay [33]: 0.252 µg/mL
IC50 in TZM-bl assay [34]: > 10 µg/mL
IC80 in TZM-bl assay [34]: > 10 µg/mL
IC50 in TZM-bl assay [35]: > 10 µg/mL
IC80 in TZM-bl assay [35]: > 10 µg/mL
IC50 in TZM-bl assay [36]: 0.002 µg/mL
IC80 in TZM-bl assay [36]: 0.005 µg/mL
IC50 in TZM-bl assay [37]: 0.011 µg/mL
IC80 in TZM-bl assay [37]: 0.039 µg/mL
IC50 in TZM-bl assay [38]: 0.061 µg/mL
IC80 in TZM-bl assay [38]: 0.263 µg/mL
IC50 in TZM-bl assay [39]: 0.058 µg/mL
IC80 in TZM-bl assay [39]: 0.371 µg/mL
